Results taken from patent publication US20210033609A1 (EUROIMMUN MEDIZINISCHE LABORDIAGNOSTIKA, published 2021).

Assays:
[1] = biological target: the molecule itself; experiment: self-association; analytical gel filtration (Superdex 200)
[2] = biological target: T1, bovine Apolipoprotein A-I (Bos taurus, UniProt P15497 25-265); experiment: co-purification from cell culture supernatant on nickel affinity resin via the His tag of NS1
T1 construct: also called bovine apolipoprotein A1; Apo AI[Bos taurus]
T1 sequence: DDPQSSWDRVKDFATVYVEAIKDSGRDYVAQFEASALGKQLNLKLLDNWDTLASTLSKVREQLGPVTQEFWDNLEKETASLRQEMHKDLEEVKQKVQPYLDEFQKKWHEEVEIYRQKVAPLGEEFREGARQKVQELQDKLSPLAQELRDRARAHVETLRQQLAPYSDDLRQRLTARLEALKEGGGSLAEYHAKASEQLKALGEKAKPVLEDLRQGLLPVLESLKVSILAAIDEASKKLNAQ

| Binder | binding result [1] | binding result [2] |
| --- | --- | --- |
| sNS1 (recombinant Zika virus NS1 purified from HEK293T culture supernatant) (other, Secreted form purified in the presence of 0.1% Triton X-100; Gel filtration: mainly hexamer (227 kDa); also called NS1[ZIKV]; soluble NS1 purified from cell culture supernatant) GPMDVGCSVDFSKKETRCGTGVFVYNDVEAWRDRYKYHPDSPRRLAAAVKQAWEEGICGISSVSRMENIMWKSVEGELNAILEENGVQLTVVVGSVKNPMWRGPQRLPVPVNELPHGWKAWGKSYFVRAAKTNNSFVVDGDTLKECPLKHRAWNSFLVEDHGFGVFHTSVWLKVREDYSLECDPAVIGTAVKGKEAAHSDLGYWIESEKNDTWRLKRAHLIEMKTCEWPKSHTLWTDGVEESDLIIPKSLAGPLSHHNTREGYRTQVKGPWHSEELEIRFEECPGTKVHVEETCGTRGPSLRSTTASGRVIEEWCCRECTMPPLSFRAKDGCWYGMEIRPRKEPESNLVRSMVTALEHHHHHHHH | binds | binds |
| mNS1 (recombinant Zika virus NS1 purified from HEK293T cell lysate) (other, Expressed in HEK293T from pTriEx-1; Gel filtration: mainly hexamer (212 kDa) with an extra monomer peak (44 kDa); SDS gives a dimer, heat gives a monomer; also called NS1[ZIKV]; membranous NS1 purified from cells) GPMDVGCSVDFSKKETRCGTGVFVYNDVEAWRDRYKYHPDSPRRLAAAVKQAWEEGICGISSVSRMENIMWKSVEGELNAILEENGVQLTVVVGSVKNPMWRGPQRLPVPVNELPHGWKAWGKSYFVRAAKTNNSFVVDGDTLKECPLKHRAWNSFLVEDHGFGVFHTSVWLKVREDYSLECDPAVIGTAVKGKEAAHSDLGYWIESEKNDTWRLKRAHLIEMKTCEWPKSHTLWTDGVEESDLIIPKSLAGPLSHHNTREGYRTQVKGPWHSEELEIRFEECPGTKVHVEETCGTRGPSLRSTTASGRVIEEWCCRECTMPPLSFRAKDGCWYGMEIRPRKEPESNLVRSMVTALEHHHHHHHH | binds | – |
